Data on one substance can be found in patent publication US20230357838.

One data set relates to T1, MGYPDa06 (unidentified).
T1 sequence: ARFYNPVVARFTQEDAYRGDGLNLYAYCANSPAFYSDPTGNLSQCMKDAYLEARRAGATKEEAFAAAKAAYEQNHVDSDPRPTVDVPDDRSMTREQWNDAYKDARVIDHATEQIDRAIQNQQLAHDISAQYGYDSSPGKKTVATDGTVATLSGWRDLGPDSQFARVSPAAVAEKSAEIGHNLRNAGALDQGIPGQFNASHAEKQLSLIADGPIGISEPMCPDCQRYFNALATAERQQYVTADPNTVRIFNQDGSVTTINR

In data set [1] the test system is T2, CsDa01 (Chitinophaga silvisoli).
T2 sequence: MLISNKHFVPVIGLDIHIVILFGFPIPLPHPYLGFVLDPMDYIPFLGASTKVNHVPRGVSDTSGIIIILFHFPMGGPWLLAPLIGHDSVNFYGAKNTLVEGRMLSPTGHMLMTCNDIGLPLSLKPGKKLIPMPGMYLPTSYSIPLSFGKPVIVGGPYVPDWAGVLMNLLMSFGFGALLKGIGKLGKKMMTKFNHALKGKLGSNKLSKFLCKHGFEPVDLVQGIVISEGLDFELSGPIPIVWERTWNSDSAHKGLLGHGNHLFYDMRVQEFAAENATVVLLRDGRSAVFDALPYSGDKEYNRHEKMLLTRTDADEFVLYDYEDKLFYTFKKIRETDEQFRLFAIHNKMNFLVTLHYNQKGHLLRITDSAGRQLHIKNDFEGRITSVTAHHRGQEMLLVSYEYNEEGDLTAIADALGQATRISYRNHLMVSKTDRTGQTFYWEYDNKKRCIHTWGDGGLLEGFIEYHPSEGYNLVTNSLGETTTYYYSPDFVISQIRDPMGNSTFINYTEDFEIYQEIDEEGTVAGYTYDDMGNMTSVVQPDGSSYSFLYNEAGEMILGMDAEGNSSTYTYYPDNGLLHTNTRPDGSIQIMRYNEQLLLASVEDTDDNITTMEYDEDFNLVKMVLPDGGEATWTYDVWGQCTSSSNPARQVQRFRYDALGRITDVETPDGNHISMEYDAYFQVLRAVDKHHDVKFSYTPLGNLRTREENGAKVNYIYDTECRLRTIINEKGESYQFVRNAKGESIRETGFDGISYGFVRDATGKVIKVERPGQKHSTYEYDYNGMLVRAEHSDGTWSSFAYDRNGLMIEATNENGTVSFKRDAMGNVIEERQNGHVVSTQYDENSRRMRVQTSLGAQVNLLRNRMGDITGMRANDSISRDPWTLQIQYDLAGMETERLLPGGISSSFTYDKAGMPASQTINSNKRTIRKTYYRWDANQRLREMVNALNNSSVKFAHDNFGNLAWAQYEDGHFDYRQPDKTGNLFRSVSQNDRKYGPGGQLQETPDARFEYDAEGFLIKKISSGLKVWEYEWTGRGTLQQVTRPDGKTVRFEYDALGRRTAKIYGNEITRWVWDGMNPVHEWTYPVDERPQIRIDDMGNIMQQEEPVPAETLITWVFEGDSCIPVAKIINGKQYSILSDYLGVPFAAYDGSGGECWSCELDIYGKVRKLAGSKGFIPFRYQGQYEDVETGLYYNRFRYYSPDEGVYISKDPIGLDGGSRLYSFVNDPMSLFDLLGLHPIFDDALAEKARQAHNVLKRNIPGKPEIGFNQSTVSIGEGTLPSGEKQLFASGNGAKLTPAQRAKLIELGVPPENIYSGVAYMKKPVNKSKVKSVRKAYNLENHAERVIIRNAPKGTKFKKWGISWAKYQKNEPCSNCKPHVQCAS

Data set [2] has as its system T3, AvDa02 (Actinomyces viscosus).
T3 sequence: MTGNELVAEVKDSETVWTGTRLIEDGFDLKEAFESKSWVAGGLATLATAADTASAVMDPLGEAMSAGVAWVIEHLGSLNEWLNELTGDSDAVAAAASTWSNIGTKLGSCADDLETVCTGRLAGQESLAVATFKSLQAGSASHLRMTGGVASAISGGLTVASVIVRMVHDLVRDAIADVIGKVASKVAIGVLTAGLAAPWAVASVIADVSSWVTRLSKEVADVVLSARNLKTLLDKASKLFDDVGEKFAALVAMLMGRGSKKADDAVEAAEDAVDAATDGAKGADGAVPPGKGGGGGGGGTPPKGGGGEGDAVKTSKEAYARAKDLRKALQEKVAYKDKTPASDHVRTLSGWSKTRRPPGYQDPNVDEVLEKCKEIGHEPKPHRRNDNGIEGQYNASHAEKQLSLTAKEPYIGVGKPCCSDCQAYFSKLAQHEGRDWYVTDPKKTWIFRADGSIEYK

In the next data set the test system is T4, MGYPDa16 (unidentified).
T4 sequence: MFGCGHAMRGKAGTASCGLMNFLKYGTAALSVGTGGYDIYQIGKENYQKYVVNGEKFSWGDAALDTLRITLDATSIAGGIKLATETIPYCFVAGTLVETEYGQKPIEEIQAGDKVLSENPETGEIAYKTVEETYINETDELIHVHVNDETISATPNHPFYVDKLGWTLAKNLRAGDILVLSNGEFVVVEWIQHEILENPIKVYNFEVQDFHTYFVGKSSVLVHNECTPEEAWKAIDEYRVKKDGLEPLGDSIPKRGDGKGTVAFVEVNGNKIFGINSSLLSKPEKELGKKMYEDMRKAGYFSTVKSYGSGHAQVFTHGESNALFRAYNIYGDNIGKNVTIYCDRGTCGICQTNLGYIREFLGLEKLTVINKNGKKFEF

Another data set relates to T5, MGYPDa829.
T5 sequence: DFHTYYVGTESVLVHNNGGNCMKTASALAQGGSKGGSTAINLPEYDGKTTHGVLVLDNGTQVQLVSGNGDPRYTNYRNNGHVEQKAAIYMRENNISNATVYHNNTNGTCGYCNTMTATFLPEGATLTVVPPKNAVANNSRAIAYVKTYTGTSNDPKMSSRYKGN

The test system of a further data set is T6, MGYPDa26 (unidentified).
T6 sequence: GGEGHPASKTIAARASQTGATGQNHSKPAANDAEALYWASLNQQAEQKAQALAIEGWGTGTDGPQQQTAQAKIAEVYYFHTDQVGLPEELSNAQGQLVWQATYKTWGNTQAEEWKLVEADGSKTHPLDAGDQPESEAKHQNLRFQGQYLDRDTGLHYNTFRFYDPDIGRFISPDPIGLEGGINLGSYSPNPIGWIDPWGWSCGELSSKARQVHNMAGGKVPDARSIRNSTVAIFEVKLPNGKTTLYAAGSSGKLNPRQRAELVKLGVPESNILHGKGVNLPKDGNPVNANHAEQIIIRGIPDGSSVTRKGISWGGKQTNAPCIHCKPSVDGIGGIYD

Data set [3] concerns T7, d38_MGYPDa829 (unidentified).
T7 sequence: T5 sequence

Data set [4] has as its system SaDa02 (Streptomyces sp.).

For “unmodified dsDNA (E. coli C2566 genomic)”, the activity (fraction deaminated) with MGYPDa06 (unidentified) was determined as 0.997; in data set [1], 0.913; in data set [2] it was 0.998; in the data set on MGYPDa16 (unidentified), 0.78; in the data set on MGYPDa829 it was 0.956; in the data set with MGYPDa26 (unidentified), 0.929. Besides, the results for the activity (fraction deaminated) in data set [3] and in data set [4] were 0.993 and 0.607, respectively.
